Measured values taken from article PMC9723622, “PARP1 proximity proteomics reveals interaction partners at stressed replication forks” (Nucleic Acids Research, 2022).
Values belong to the binder of their own block, whether it stands above or below them.

Biological target: T1, recombinant PARP1 (human, UniProt P09874 1-1014)
T1 construct: PARP1, recombinant; also called purified PARP1; source: recombinant, purified
Test: pull-down; His-GFP-TPX2 proteins immobilised on GFP-Trap beads, equimolar recombinant PARP1 added, 2 h 4°C; 20 mM Tris-HCl pH 7.5, 250 mM NaCl, 0.2% glycerol, 0.2% Triton X-100; Western blot
Conditions: both partners purified

T1 sequence (P09874 whole entry): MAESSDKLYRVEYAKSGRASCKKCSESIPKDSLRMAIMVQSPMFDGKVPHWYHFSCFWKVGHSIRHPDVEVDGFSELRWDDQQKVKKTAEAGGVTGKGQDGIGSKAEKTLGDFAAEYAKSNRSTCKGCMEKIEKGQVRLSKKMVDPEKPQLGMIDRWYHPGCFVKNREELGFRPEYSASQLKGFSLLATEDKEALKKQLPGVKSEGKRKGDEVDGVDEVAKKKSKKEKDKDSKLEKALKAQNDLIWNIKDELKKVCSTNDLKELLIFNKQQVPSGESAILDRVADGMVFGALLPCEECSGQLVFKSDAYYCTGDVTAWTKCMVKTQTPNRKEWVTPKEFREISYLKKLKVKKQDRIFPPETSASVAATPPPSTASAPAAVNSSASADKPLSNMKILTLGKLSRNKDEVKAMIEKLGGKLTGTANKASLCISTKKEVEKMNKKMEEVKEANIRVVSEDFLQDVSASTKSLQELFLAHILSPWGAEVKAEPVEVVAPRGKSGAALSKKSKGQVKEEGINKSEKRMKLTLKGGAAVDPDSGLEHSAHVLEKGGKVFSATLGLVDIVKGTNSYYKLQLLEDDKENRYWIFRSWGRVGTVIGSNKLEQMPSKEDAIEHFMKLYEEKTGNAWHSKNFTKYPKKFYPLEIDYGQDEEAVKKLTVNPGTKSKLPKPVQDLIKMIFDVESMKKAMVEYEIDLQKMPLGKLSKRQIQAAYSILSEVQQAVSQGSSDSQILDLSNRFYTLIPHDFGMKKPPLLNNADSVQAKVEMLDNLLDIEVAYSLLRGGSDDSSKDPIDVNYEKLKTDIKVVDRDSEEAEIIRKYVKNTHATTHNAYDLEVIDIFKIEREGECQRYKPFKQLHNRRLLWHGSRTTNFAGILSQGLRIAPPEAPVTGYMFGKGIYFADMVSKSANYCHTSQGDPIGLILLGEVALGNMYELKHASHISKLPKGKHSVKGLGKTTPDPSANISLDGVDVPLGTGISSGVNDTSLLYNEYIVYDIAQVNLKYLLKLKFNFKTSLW

binding result: binds
B1: His-GFP-tagged TPX2 N-terminal part (1–254 amino acids), recombinant (domain or fragment, UniProt Q9ULW0 1-254, looked up)
chain: MSQVKSSYSYDAPSDFINFSSLDDEGDTQNIDSWFEEKANLENKLLGKNGTGGLFQGKTPLRKANLQQAIVTPLKPVDNTYYKEAEKENLVEQSIPSNACSSLEVEAAISRKTPAQPQRRSLRLSAQKDLEQKEKHHVKMKAKRCATPVIIDEILPSKKMKVSNNKKKPEEEGSAHQDTAEKNASSPEKAKGRHTVPCMPPAKQKFLKSTEEQELEKSMKMQQEVVEMRKKNEEFKKLALAGIGQPVKKSVSQV
notes: also called TPX2_254only; source: recombinant, purified

binding result: binds
B2: His-GFP-tagged TPX2 full-length protein (recombinant) (natural protein, UniProt Q9ULW0 1-747, looked up)
chain: MSQVKSSYSYDAPSDFINFSSLDDEGDTQNIDSWFEEKANLENKLLGKNGTGGLFQGKTPLRKANLQQAIVTPLKPVDNTYYKEAEKENLVEQSIPSNACSSLEVEAAISRKTPAQPQRRSLRLSAQKDLEQKEKHHVKMKAKRCATPVIIDEILPSKKMKVSNNKKKPEEEGSAHQDTAEKNASSPEKAKGRHTVPCMPPAKQKFLKSTEEQELEKSMKMQQEVVEMRKKNEEFKKLALAGIGQPVKKSVSQVTKSVDFHFRTDERIKQHPKNQEEYKEVNFTSELRKHPSSPARVTKGCTIVKPFNLSQGKKRTFDETVSTYVPLAQQVEDFHKRTPNRYHLRSKKDDINLLPSKSSVTKICRDPQTPVLQTKHRARAVTCKSTAELEAEELEKLQQYKFKARELDPRILEGGPILPKKPPVKPPTEPIGFDLEIEKRIQERESKKKTEDEHFEFHSRPCPTKILEDVVGVPEKKVLPITVPKSPAFALKNRIRMPTKEDEEEDEPVVIKAQPVPHYGVPFKPQIPEARTVEICPFSFDSRDKERQLQKEKKIKELQKGEVPKFKALPLPHFDTINLPEKKVKNVTQIEPFCLETDRRGALKAQTWKHQLEEELRQQKEAACFKARPNTVISQEPFVPKKEKKSVAEGLSGSLVQEPFQLATEKRAKERQELEKRMAEVEAQKAQQLEEARLQEEEQKKEELARLRRELVHKANPIRKYQGLEIKSSDQPLTVPVSPKFSTRFHC
notes: TPX2, full length; also called recombinant TPX2; full-length TPX2; source: recombinant, purified
